The values below come from the RNAGym collection of RNA variant scans (doi:10.7554/elife.80360).

The labels stand for the following.
B1: Twister Ribozyme (parent)
chain: AACACUGCCAAUGCCGGUCCCAAGCCCGGAUAAAAGUGGAGGGGGCGG

The series covers variants of B1. Nature of the series: self-cleavage, relative activity (ratio to wild type); higher = more cleavage; co-transcriptional.
On to A4U A40U, for which the self-cleavage was 0.0743.
The same measure for A4U A40C: 0.0425; for U6A A22G: 0.0598; for C5A A22U: 0.249.
The same measure for C5A A22C: 0.601; for C5A A22G: 0.0856.
The same measure for U6A C21G: 0.
As to U6A C21A, the self-cleavage is 0.107.
The same measure for U6A C21U: 0.0948; for U6C A32U: 0.488; for U6C A32C: 0.349.
The same measure for C5A C46A: 0.652.
The value for C5A C46U was 0.681; that for C5U G48U was 0.82.
In the case of C5U G48A, the self-cleavage amounted to 0.639.
The same measure for C5U A11G: 0.77.
For the variant C5A C20G, the self-cleavage came to 0.0697.
On to C5A C20A, for which the self-cleavage turned out to be 0.0707.
The value for C5U C20U was 0.816; that for C5U C20A was 0.105.
For C5A G24C, the self-cleavage was found to be 0.0665.
The value for C5U G7U was 0.0676; that for C5U G7A was 0.147.
The value for C5U G7C was 0.0595; that for U6A A35U was 0.992.
As for U6A A35G, the self-cleavage amounted to 0.807.
With C5U U31A, the self-cleavage amounted to 0.577.
The value for C5U U31G was 0.65; that for C5U U31C was 0.804.
The value for A4U G39A was 0.0691; that for C5A C25U was 0.236.
The value for C5A C25A was 0.068; that for A4U A23C was 0.0467; that for A4U A23G was 0.0721.
As to C5A C15U, the self-cleavage was found to be 0.398.
The same measure for C5U A33G: 0.631; for C5U A33C: 0.652; for C5U A33U: 0.714.
The same measure for C5U C25G: 0.149; for C5U C25U: 0.507.
In the case of A4U C27A, the self-cleavage amounted to 0.0441.
The value for C5A G42C was 0.184; that for C5A G42A was 0.132; that for C5A G43A was 0.1.
The value for C5A G43U was 0.108; that for C5A G29U was 0.51; that for C5A G29A was 0.362.
As for C5G G44C, the self-cleavage came out at 0.678.
As for C5G G44A, the self-cleavage was found to be 0.642.
The same measure for C5G G44U: 0.646.
Regarding A4U C14U, the self-cleavage was 0.13.
The value for A4U C14A was 0.225; that for A4U C14G was 0.0594; that for U6A U37A was 0.142.
The value for C5A A35C was 0.655; that for C5G G24A was 0.0701.
The value for A4U G24A was 0.0658; that for A4U G24C was 0.0697.
On to U6C A34C, for which the self-cleavage amounted to 0.18.
In the case of C5G G45A, the self-cleavage was determined as 0.475.
The same measure for C5G G45U: 0.369.
The same measure for C5G C21U: 0.104; for C5G C21A: 0.0944.
For C5A A10C, the self-cleavage was 0.722.
The same measure for A4U A35U: 0.196.
As to A4U A35C, the self-cleavage was found to be 0.129.
As to C5G C27U, the self-cleavage came to 0.445.
On to C5G C27A, for which the self-cleavage stood at 0.103.
Turning to C5U U12G, the self-cleavage turned out to be 0.763.
The same measure for C5U U12C: 0.769.
Turning to U6A C15A, the self-cleavage was 0.358.
The value for U6A C15G was 0.0866.
The same measure for A4U G48A: 0.191; for A4U G48C: 0.193.
The value for C5G G42U was 0.0923.
Regarding C5G G42C, the self-cleavage was found to be 0.226.
For C5G G42A, the self-cleavage worked out at 0.108.
The value for U6A A33C was 0.949.
Consider U6A A33U, for which the self-cleavage worked out at 0.828.
The value for U6A G47A was 0.862; that for U6A G47C was 0.296.
The same measure for U6A G47U: 0.441; for C5G A40G: 0.182.
As to C5G A40U, the self-cleavage was determined as 0.0886.
The value for C5G A40C was 0.198; that for A4U U31C was 0.0955.
As for C5G C9U, the self-cleavage is 0.13.
As for C5A G13U, the self-cleavage is 0.0864.
As for C5A G13C, the self-cleavage amounted to 0.105.
The value for C5A G13A was 0.132.
As for C5U G17A, the self-cleavage was determined as 0.237.
The value for A4U G43C was 0.0736; that for A4U A22C was 0.0902; that for A4U A22G was 0.0233.
As to U6A G24A, the self-cleavage was found to be 0.116.
The same measure for U6A G17U: 0.101; for C5U G44A: 0.748.
The same measure for C5U G44U: 0.816; for C5G G7U: 0.0648; for C5G G7A: 0.111.
The value for C5A G44U was 0.532.
Turning to C5A G44A, the self-cleavage was 0.556.
The same measure for C5A G44C: 0.556; for U6A U12C: 1.11; for U6A U12G: 0.903.
The same measure for U6C A22G: 0.0819; for U6C A22C: 0.691; for U6A U31A: 0.717.
U6A U31G: the self-cleavage was determined as 1.01.
The same measure for U6A U31C: 1.07; for C5A A33U: 0.492.
The same measure for C5A G39U: 0.0872; for C5A G39C: 0.149; for C5A G39A: 0.161.
C5A A30G: the self-cleavage was 0.491.
The value for C5A A30C was 0.348; that for U6A G16U was 0.43.
As for U6A G16C, the self-cleavage was determined as 0.135.
The same measure for U6A G16A: 0.604; for C5A G47U: 0.486; for U6A G45A: 0.911.
Regarding U6A G45C, the self-cleavage turned out to be 0.254.
The same measure for C5G U37C: 0.14; for C5G U37G: 0.519.
As to C5G C46G, the self-cleavage is 0.915.
Consider U6A C19A, for which the self-cleavage was found to be 0.0793.
As to U6A C19G, the self-cleavage is 0.0747.
U6A C19U: the self-cleavage turned out to be 0.539.
For C5G G47U, the self-cleavage amounted to 0.521.
The value for C5G G47C was 0.269.
As to C5G A10C, the self-cleavage was 0.768.
The value for C5A A23U was 0.074; that for C5A U12G was 0.42.
Take A4U G28C: the self-cleavage is 0.0611.
On to A4U G28U, for which the self-cleavage stood at 0.116.
Regarding C5A G36C, the self-cleavage worked out at 0.519.
As to A4U A30U, the self-cleavage was 0.11.
On to A4U G7U, for which the self-cleavage came out at 0.0685.
For the variant U6A C9U, the self-cleavage amounted to 0.223.
The same measure for U6A C9A: 0.153; for C5G G41U: 0.154; for C5G G41C: 0.114.
For the variant C5G G38C, the self-cleavage was 0.219.
The value for C5G G38U was 0.165; that for A4U C15G was 0.0221; that for A4U C15U was 0.124.
The value for C5U G41C was 0.137.
Consider C5U G41U, for which the self-cleavage was found to be 0.221.
On to C5U A30U, for which the self-cleavage came out at 0.752.
The value for C5U A30G was 0.784.
The same measure for C5G G48A: 0.67.
The same measure for C5G G48C: 0.77; for A4U C5A: 0.0794.
On to A4U C26A, for which the self-cleavage worked out at 0.0524.
The same measure for C5U A22G: 0.113; for C5U U6C: 0.691.
Regarding C5A C8U, the self-cleavage was found to be 0.335.
C5A C8A: the self-cleavage was 0.133.
The value for C5U G16U was 0.459; that for A4U C9G was 0.0806.
As for C5A C19G, the self-cleavage was found to be 0.0385.
Take C5U G45C: the self-cleavage worked out at 0.239.
On to C5U G45U, for which the self-cleavage amounted to 0.423.
For the variant U6C A10G, the self-cleavage is 0.809.
C5A U31G: the self-cleavage was found to be 0.524.
As for C5G A32U, the self-cleavage came to 0.515.
C5G A32C: the self-cleavage amounted to 0.57.
